B1: MGC16075 (parent)
chain: AGSRQALSFEVPPCNYDPEKWIQ

Variants of: B1
Test: protein stability index of a GFP-peptide fusion (GPS, HEK-293T) (PSI 1-6); higher = more stable
Conditions: c terminus: native
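Also: lentivirally expressed fusions sorted by FACS into six bins by GFP to DsRed ratio, PSI derived from sequencing read proportions per bin multiplied by bin number.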

Variant	protein stability index
AGSRQALSFEVPPQNYDPEKWIQ [C14Q]	2.05
AGSRQALSFEVPPNNYDPEKWIQ [C14N]	1.92
AGSRQALSFEVPPANYDPEKWIQ [C14A]	2.28
AGSRQALSFEVPPDNYDPEKWIQ [C14D]	2
AGSRQALSFEVPPVNYDPEKWIQ [C14V]	1.95
AGSRQALSFEVPPMNYDPEKWIQ [C14M]	1.23
AGSRQALSFEVPPCNYGPEKWIQ [D17G]	2.29
AGSRQALSFEVPPCNYKPEKWIQ [D17K]	3.23
AGSRQALSFEVPPCNYWPEKWIQ [D17W]	1.91
AGSRQALSFEVPPCNYYPEKWIQ [D17Y]	2.15
AGSRQALSFEVPPCNYTPEKWIQ [D17T]	1.92
AGSRQALSFEVPPCNYLPEKWIQ [D17L]	1.81
AGSRQALSFEVPPCNYPPEKWIQ [D17P]	1.74
AGSRQALSFEVPPCLYDPEKWIQ [N15L]	1.99
AGSRQALSFEVPPCEYDPEKWIQ [N15E]	1.58
AGSRQALSFEVPPCAYDPEKWIQ [N15A]	1.71
AGSRQALSFEVPPCQYDPEKWIQ [N15Q]	3.17
AGSRQALSFEVPPCGYDPEKWIQ [N15G]	2.03
AGSRQALSFEVPPCKYDPEKWIQ [N15K]	2.53
AGSRQALSFEVPPCTYDPEKWIQ [N15T]	1.64
AGSYQALSFEVPPCNYDPEKWIQ [R4Y]	1.22
AGSHQALSFEVPPCNYDPEKWIQ [R4H]	2.67
AGSEQALSFEVPPCNYDPEKWIQ [R4E]	1.83
AGSWQALSFEVPPCNYDPEKWIQ [R4W]	3.74
AGSFQALSFEVPPCNYDPEKWIQ [R4F]	2.41

Variant	protein stability index
AGSQQALSFEVPPCNYDPEKWIQ [R4Q]	1.87
AGARQALSFEVPPCNYDPEKWIQ [S3A]	1.67
AGYRQALSFEVPPCNYDPEKWIQ [S3Y]	1.28
AGQRQALSFEVPPCNYDPEKWIQ [S3Q]	1.6
AGCRQALSFEVPPCNYDPEKWIQ [S3C]	1.52
AGGRQALSFEVPPCNYDPEKWIQ [S3G]	2.88
AGWRQALSFEVPPCNYDPEKWIQ [S3W]	2.7
AGIRQALSFEVPPCNYDPEKWIQ [S3I]	1.99
AGSRQALSFEQPPCNYDPEKWIQ [V11Q]	2.38
AGSRQALSFEWPPCNYDPEKWIQ [V11W]	2.04
AGSRQALSFELPPCNYDPEKWIQ [V11L]	1.3
AGSRQALSFEHPPCNYDPEKWIQ [V11H]	1.93
AGSRQALSFEEPPCNYDPEKWIQ [V11E]	2.07
AGSRQALSFEKPPCNYDPEKWIQ [V11K]	2.61
AGSRQALSFESPPCNYDPEKWIQ [V11S]	1.84
AGSRQALSFERPPCNYDPEKWIQ [V11R]	2
AGSRQALSFEAPPCNYDPEKWIQ [V11A]	2.52
AGSRQALSFENPPCNYDPEKWIQ [V11N]	1.68
AGSRQALSFETPPCNYDPEKWIQ [V11T]	1.89
AGSRQALSFEVPPCNYDVEKWIQ [P18V]	1.99
AGSRQALSFEVPPCNYDAEKWIQ [P18A]	1.62
AGSRQALSFEVPPCNYDWEKWIQ [P18W]	1.1
AGSRQALSFEVPPCNYDYEKWIQ [P18Y]	1.87
AGSRQALSFEVPPCNYDREKWIQ [P18R]	2.36
AGSRQALSFEVPPCNYDTEKWIQ [P18T]	1.82

Variant	protein stability index
YGSRQALSFEVPPCNYDPEKWIQ [A1Y]	2.8
EGSRQALSFEVPPCNYDPEKWIQ [A1E]	2.19
WGSRQALSFEVPPCNYDPEKWIQ [A1W]	3.29
IGSRQALSFEVPPCNYDPEKWIQ [A1I]	1.9
QGSRQALSFEVPPCNYDPEKWIQ [A1Q]	2.17
FGSRQALSFEVPPCNYDPEKWIQ [A1F]	3.97
LGSRQALSFEVPPCNYDPEKWIQ [A1L]	1.22
TGSRQALSFEVPPCNYDPEKWIQ [A1T]	2.09
SGSRQALSFEVPPCNYDPEKWIQ [A1S]	1.46
AGSRQALSFEVEPCNYDPEKWIQ [P12E]	2.14
AGSRQALSFEVQPCNYDPEKWIQ [P12Q]	2
AGSRQALSFEVRPCNYDPEKWIQ [P12R]	1.81
AGSRQALSFEVCPCNYDPEKWIQ [P12C]	2.41
AGSRQALSFEVGPCNYDPEKWIQ [P12G]	1.37
AGSRQALSFEVSPCNYDPEKWIQ [P12S]	1.71
AGSRQALSFEVAPCNYDPEKWIQ [P12A]	1.79
AGSRQALSFEVMPCNYDPEKWIQ [P12M]	2.33
AGSRQALSFEVNPCNYDPEKWIQ [P12N]	1.67
AGSRQALSFEVWPCNYDPEKWIQ [P12W]	2.69
AGSRQCLSFEVPPCNYDPEKWIQ [A6C]	2.03
AGSRQMLSFEVPPCNYDPEKWIQ [A6M]	2.98
AGSRQGLSFEVPPCNYDPEKWIQ [A6G]	1.03
AGSRQILSFEVPPCNYDPEKWIQ [A6I]	3.05
AGSRQWLSFEVPPCNYDPEKWIQ [A6W]	3.24
AGSRQKLSFEVPPCNYDPEKWIQ [A6K]	2.47

Variant	protein stability index
AGSRQVLSFEVPPCNYDPEKWIQ [A6V]	2.59
AGSRQLLSFEVPPCNYDPEKWIQ [A6L]	3.71
AGSRQQLSFEVPPCNYDPEKWIQ [A6Q]	1.99
AGSRQALSFEVPPCNYDPEKWID [Q23D]	1.34
AGSRQALSFEVPPCNYDPEKWIE [Q23E]	1.97
AGSRQALSFEVPPCNYDPEKWIW [Q23W]	1.24
AGSRQALSFEVPPCNYDPEKWIG [Q23G]	3.04
AGSRQALSFEVPPCNYDPEKWIM [Q23M]	1.82
AGSRQALSFEVPPCNYDPEKWIP [Q23P]	4.37
AGSRQALSFEVPPCNYDPEKWIN [Q23N]	2.83
AGSRQALSFEVPPCNYDPEKWIV [Q23V]	4.81
AGSRQALSFEVPPCNYDPEKWII [Q23I]	2.43
AGSRQALSFEVPPCNYDPEKWHQ [I22H]	4.62
AGSRQALSFEVPPCNYDPEKWNQ [I22N]	4.99
AGSRQALSFEVPPCNYDPEKWMQ [I22M]	4.14
AGSRQALSFEVPPCNYDPEKWVQ [I22V]	2.75
AGSRQALSFEVPPCNYDPEKWDQ [I22D]	4.97
AGSRQALSFEVPPCNYDPEKWSQ [I22S]	5.03
AGSRQALSFEVPPCNYDPEKWKQ [I22K]	4.72
AGSRQALSFEVPPCNYDPEKWFQ [I22F]	4.43
AGSRQALSFEVPPCNYDPEKWAQ [I22A]	4.22
AGSRQALSFEVPPCNYDPEKWPQ [I22P]	4.72
AGSRQALSFEVPPCNYDPEKWGQ [I22G]	5.11
AGSRQALSFEVPPCNYDPLKWIQ [E19L]	3.01
AGSRQALSFEVPPCNYDPYKWIQ [E19Y]	2.07

Variant	protein stability index
AGSRQALSFEVPPCNYDPPKWIQ [E19P]	2.28
AGSRQALSFEVPPCNYDPKKWIQ [E19K]	3.27
AGSRQALSFEVPPCNYDPWKWIQ [E19W]	2.47
AGSRQALSFEVPPCNYDPIKWIQ [E19I]	1.84
AGSRQALSFEVPPCNYDPQKWIQ [E19Q]	2.72
AGSRQALSFEVPPCNYDPFKWIQ [E19F]	2.33
AGSRQALSFEVPPCNYDPMKWIQ [E19M]	1.52
AGSRQALSFEVPPCNYDPVKWIQ [E19V]	1.86
AGSRQALSFEVPPCNYDPRKWIQ [E19R]	2.14
AGSRQALRFEVPPCNYDPEKWIQ [S8R]	1.89
AGSRQALDFEVPPCNYDPEKWIQ [S8D]	2.32
AGSRQALAFEVPPCNYDPEKWIQ [S8A]	1.79
AGSRQALNFEVPPCNYDPEKWIQ [S8N]	1.91
AGSRQALGFEVPPCNYDPEKWIQ [S8G]	1.83
AGSRQALWFEVPPCNYDPEKWIQ [S8W]	2.05
AGSRQALCFEVPPCNYDPEKWIQ [S8C]	2.6
AGSRQALIFEVPPCNYDPEKWIQ [S8I]	1.59
AGSRQALHFEVPPCNYDPEKWIQ [S8H]	2.05
AGSRQALQFEVPPCNYDPEKWIQ [S8Q]	1.26
AGSRQALTFEVPPCNYDPEKWIQ [S8T]	3.31
AGSRQALFFEVPPCNYDPEKWIQ [S8F]	2.92
AGSRQANSFEVPPCNYDPEKWIQ [L7N]	2.72
AGSRQAKSFEVPPCNYDPEKWIQ [L7K]	1.82
AGSRQAHSFEVPPCNYDPEKWIQ [L7H]	2.33
AGSRQAGSFEVPPCNYDPEKWIQ [L7G]	2.06

Variant	protein stability index
AGSRQAWSFEVPPCNYDPEKWIQ [L7W]	2.77
AGSRQACSFEVPPCNYDPEKWIQ [L7C]	2.75
AGSRQAQSFEVPPCNYDPEKWIQ [L7Q]	2.57
AGSRQAASFEVPPCNYDPEKWIQ [L7A]	2.09
AGSRQALSFEVPPCNYDPEGWIQ [K20G]	3.9
AGSRQALSFEVPPCNYDPEDWIQ [K20D]	4.29
AGSRQALSFEVPPCNYDPESWIQ [K20S]	3.77
AGSRQALSFEVPPCNYDPETWIQ [K20T]	3.33
AGSRQALSFEVPPCNYDPECWIQ [K20C]	2.26
AGSRQALSFEVPPCNYDPEFWIQ [K20F]	3.49
AGSRQALSFEVPPCNYDPEHWIQ [K20H]	3.7
AGSRQALSFEVPPCNYDPEWWIQ [K20W]	3.58
AGSRQALSFEVPPCNYDPEPWIQ [K20P]	4.17
AGSRQALSFEVPPCNMDPEKWIQ [Y16M]	2.03
AGSRQALSFEVPPCNSDPEKWIQ [Y16S]	1.48
AGSRQALSFEVPPCNNDPEKWIQ [Y16N]	2.2
AGSRQALSFEVPPCNKDPEKWIQ [Y16K]	1.61
AGSRQALSFEVPPCNADPEKWIQ [Y16A]	1.54
AGSRQALSFEVPPCNLDPEKWIQ [Y16L]	2.04
AGSRQALSFEVPPCNGDPEKWIQ [Y16G]	3.5
AGSRHALSFEVPPCNYDPEKWIQ [Q5H]	1.82
AGSRYALSFEVPPCNYDPEKWIQ [Q5Y]	2.68
AGSRGALSFEVPPCNYDPEKWIQ [Q5G]	2.03
AGSRFALSFEVPPCNYDPEKWIQ [Q5F]	3.99
AGSREALSFEVPPCNYDPEKWIQ [Q5E]	3.29

Variant	protein stability index
AGSRTALSFEVPPCNYDPEKWIQ [Q5T]	2.12
AGSRVALSFEVPPCNYDPEKWIQ [Q5V]	2.35
AGSRSALSFEVPPCNYDPEKWIQ [Q5S]	1.48
AGSRMALSFEVPPCNYDPEKWIQ [Q5M]	1.72
AGSRDALSFEVPPCNYDPEKWIQ [Q5D]	1.52
AVSRQALSFEVPPCNYDPEKWIQ [G2V]	1.97
AFSRQALSFEVPPCNYDPEKWIQ [G2F]	2.77
AHSRQALSFEVPPCNYDPEKWIQ [G2H]	2.4
ARSRQALSFEVPPCNYDPEKWIQ [G2R]	2.58
AESRQALSFEVPPCNYDPEKWIQ [G2E]	1.48
APSRQALSFEVPPCNYDPEKWIQ [G2P]	1.94
ATSRQALSFEVPPCNYDPEKWIQ [G2T]	1.95
AGSRQALSFCVPPCNYDPEKWIQ [E10C]	2.27
AGSRQALSFDVPPCNYDPEKWIQ [E10D]	2.6
AGSRQALSFPVPPCNYDPEKWIQ [E10P]	2.3
AGSRQALSFNVPPCNYDPEKWIQ [E10N]	1.7
AGSRQALSFAVPPCNYDPEKWIQ [E10A]	3.25
AGSRQALSFMVPPCNYDPEKWIQ [E10M]	2.56
AGSRQALSFRVPPCNYDPEKWIQ [E10R]	1.97
AGSRQALSFHVPPCNYDPEKWIQ [E10H]	3.09
AGSRQALSFEVPHCNYDPEKWIQ [P13H]	1.2
AGSRQALSFEVPDCNYDPEKWIQ [P13D]	1.8
AGSRQALSFEVPYCNYDPEKWIQ [P13Y]	2.88
AGSRQALSFEVPCCNYDPEKWIQ [P13C]	3
AGSRQALSFEVPICNYDPEKWIQ [P13I]	2.7

Variant	protein stability index
AGSRQALSFEVPQCNYDPEKWIQ [P13Q]	2.03
AGSRQALSFEVPECNYDPEKWIQ [P13E]	1.44
AGSRQALSFEVPSCNYDPEKWIQ [P13S]	2.66
AGSRQALSSEVPPCNYDPEKWIQ [F9S]	2.77
AGSRQALSTEVPPCNYDPEKWIQ [F9T]	2.79
AGSRQALSYEVPPCNYDPEKWIQ [F9Y]	2
AGSRQALSDEVPPCNYDPEKWIQ [F9D]	3.05
AGSRQALSIEVPPCNYDPEKWIQ [F9I]	2.07
AGSRQALSMEVPPCNYDPEKWIQ [F9M]	2.29
AGSRQALSPEVPPCNYDPEKWIQ [F9P]	3.09
AGSRQALSHEVPPCNYDPEKWIQ [F9H]	2.86
AGSRQALSVEVPPCNYDPEKWIQ [F9V]	2.57
AGSRQALSFEVPPCNYDPEKPIQ [W21P]	5.2
AGSRQALSFEVPPCNYDPEKRIQ [W21R]	2.16
AGSRQALSFEVPPCNYDPEKIIQ [W21I]	4.03
AGSRQALSFEVPPCNYDPEKMIQ [W21M]	3.23
AGSRQALSFEVPPCNYDPEKDIQ [W21D]	3.28
AGSRQALSFEVPPCNYDPEKQIQ [W21Q]	2.83
AGSRQALSFEVPPCNYDPEKFIQ [W21F]	2.89

Source: the supplement of paper PMC10567573
